Results reported in patent publication US20200270343A1 (COMPUGEN, published 2020).

T1: human VSIG10 flag protein over-expressed in HEK293 cells (stable pool) (human)
T1 chain: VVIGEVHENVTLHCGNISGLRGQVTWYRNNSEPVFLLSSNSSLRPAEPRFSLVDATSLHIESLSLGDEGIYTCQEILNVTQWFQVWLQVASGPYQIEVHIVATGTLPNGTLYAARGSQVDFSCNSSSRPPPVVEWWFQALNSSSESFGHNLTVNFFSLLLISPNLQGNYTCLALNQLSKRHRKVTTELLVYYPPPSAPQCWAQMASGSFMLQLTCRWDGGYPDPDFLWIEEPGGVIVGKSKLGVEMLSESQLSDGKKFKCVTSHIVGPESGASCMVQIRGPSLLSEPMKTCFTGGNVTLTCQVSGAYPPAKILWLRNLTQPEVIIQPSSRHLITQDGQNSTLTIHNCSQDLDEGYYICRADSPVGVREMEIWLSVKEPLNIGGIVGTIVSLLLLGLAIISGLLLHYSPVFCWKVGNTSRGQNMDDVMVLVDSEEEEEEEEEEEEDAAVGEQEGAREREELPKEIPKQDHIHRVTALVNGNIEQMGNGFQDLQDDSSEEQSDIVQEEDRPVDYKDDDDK

B1: AB-577 anti-human VSIG10 mouse monoclonal antibody (antibody, V domains shown)
VH: QVQLQQSGPELVRPGASVKMSCKPSGYRFTDYAISWVKQRTGQGLEWVGEIYPGNGNTYFNEKFKDKATLTADRSSNTAYMQLSSLTSEDSAVYFCARGYANYLPWGQGTLVTVSA
VL: DIQMTQSSSSFSVSLGDRVTITCKASEDIYNRLAWYQQKPGNAPRLLISGATGLETGVPSRISGSGSGRDYTLSITSLQTEDVGTYYCQQYWSTPRTFGGGTKLEIK
notes: clonal supernatant was also tested in WB
B2: AB-576 anti-human VSIG10 mouse monoclonal antibody (antibody, V domains shown)
VH: EVQLQQSGPELVKPGASVKMSCKASGYTFTDYYMKWVKQSHGKSLEWIGDINPNNGGTTYNQKFKGKATLTVDKSSNTAYMQFNSLTSEDSAVYFCARFRLRAMDYWGQGTSVTVSS
VL: DIVMTQSPSSLTVTAGEKVTMSCKSSQSLLNSGDRKNYLTWYQQRPGLPPKLLIYWASTRESGVPDRFTGSGSGTDFTLTISSVQSEDLAVYFCQNDYIYPLTFGAGTKLELK
notes: as for B1

Columns and labels:
[1] = molecular target: human VSIG10 protein endogenously expressed on human cell lines (DAN-G, AsPc1/ASPC-1, DU-145, ZR-75) (human) (UniProt Q8N0Z9); assay: FACS on AsPc1 cells after VSIG10 siRNA knock down; 10 ug/ml mAb vs mIgG1 kappa isotype
[2] = molecular target: human VSIG10 protein endogenously expressed on human cell lines (DAN-G, AsPc1/ASPC-1, DU-145, ZR-75) (human) (UniProt Q8N0Z9); assay: FACS on DAN-G cells transfected with scrambled (non-target) siRNA; 10 ug/ml mAb vs mIgG1 kappa isotype
[3] = molecular target: T1, human VSIG10 flag protein …; assay: FACS on HEK293 cells over-expressing human VSIG10 Flag vs HEK293 empty vector cells; goat anti mouse PE detection
Experimental: The performance of the purified mAbs against human VSIG10, in FACS application were tested using HEK293 cells over-expressing human VSIG10 Flag. HEK293 cells transfected with an empty vector were used as a negative control.
Detection was carried out using Goat anti mouse PE secondary Ab.

[4] = molecular target: human VSIG10 protein endogenously expressed on human cell lines (DAN-G, AsPc1/ASPC-1, DU-145, ZR-75) (human) (UniProt Q8N0Z9); assay: FACS titration (4 concentrations) on DU-145 human cell line endogenously expressing VSIG10, vs mIgG1 kappa isotype; Kd from binding curve
[5] = molecular target: human VSIG10 protein endogenously expressed on human cell lines (DAN-G, AsPc1/ASPC-1, DU-145, ZR-75) (human) (UniProt Q8N0Z9); assay: FACS on DAN-G cells after VSIG10 siRNA knock down; 10 ug/ml mAb vs mIgG1 kappa isotype
[6] = molecular target: T1, human VSIG10 flag protein …; assay: FACS titration (4 concentrations) on HEK293 cells over-expressing human VSIG10 Flag; Kd from binding curve
Experimental: (§1) The mAb binding was evaluated on HEK293 cells over expressing human VSIG10 as well.
(§2) Detection was carried out using Goat Anti mouse-PE secondary Ab.

[7] = molecular target: human VSIG10 protein endogenously expressed on human cell lines (DAN-G, AsPc1/ASPC-1, DU-145, ZR-75) (human) (UniProt Q8N0Z9); assay: FACS on AsPc1 cells transfected with scrambled (non-target) siRNA; 10 ug/ml mAb vs mIgG1 kappa isotype
[8] = molecular target: T1, human VSIG10 flag protein …; assay: FACS titration (8 concentrations) on HEK293 cells over-expressing human VSIG10 Flag; Kd from binding curve
Experimental: as §1, §2

[9] = molecular target: human VSIG10 protein endogenously expressed on human cell lines (DAN-G, AsPc1/ASPC-1, DU-145, ZR-75) (human) (UniProt Q8N0Z9); assay: FACS titration (8 concentrations) on ASPC-1 human cell line endogenously expressing VSIG10, vs mIgG1 kappa isotype; Kd from binding curve

Binder	MFI ratio of anti VSIG10 versus isotype control [1] [fold]	MFI ratio of anti VSIG10 versus isotype control [2] [fold]	fold change MFI ratio (VSIG10 Flag cells vs empty vector cells) [3] [fold]	Kd [4] [nM]	MFI ratio of anti VSIG10 versus isotype control [5] [fold]	Kd [6] [nM]	MFI ratio of anti VSIG10 versus isotype control [7] [fold]	Kd [8] [nM]	Kd [9] [nM]
B1	5.2	12	160	4.62	3.54	4.67	9.3		
B2	4.4	9.5	219		2.8		9.5	4.14	5.85
